Tests used:
[1] = biological target: cynomolgus BTN3A as expressed on cynomolgus PBMCs (cynomolgus monkey (Macaca fascicularis)); assay: flow cytometry on cynomolgus PBMCs
[2] = biological target: human BTN3A as expressed on human cells (PBMC, Daudi, tumour cell lines, HUVEC, HEK293T WT) (human); assay: cell-based or functional assay
[3] = biological target: human BTN3A as expressed on human cells (PBMC, Daudi, tumour cell lines, HUVEC, HEK293T WT) (human); assay: flow cytometry on Daudi lymphoma cells
[4] = biological target: human BTN3A as expressed on human cells (PBMC, Daudi, tumour cell lines, HUVEC, HEK293T WT) (human); assay: flow cytometry on human PBMCs

EC50 [1]: 7.75 µg/mL
Functional assay (AML resistant) (γδT cell-based, EC50, µg/mL) [2]: 0.42 µg/mL
Functional assay (AML sensitive) (γδT cell-based, EC50, µg/mL) [2]: 0.12 µg/mL
Functional assay (Daudi) (γδT cell-based, EC50, µg/mL) [2]: 0.02 µg/mL
EC50 [3]: 1.44 µg/mL
EC50 [4]: 3.6 µg/mL
B1: Chimeric 7.2 (VH0/Vκ0) (antibody, V domains shown)
VH: QVQLQQSGAELVKPGASVKLSCKASGYIFTRYYMYWVKQRPGQGLEWIGEINPNNGGTKFNEKFKNKATLTVDKFSSTAYMQLRSLTSEDSAVYYCSREDDYDGTPFAMDYWGQGTSVTVSS
VL: DIQMNQSPSSLSASLGDTITITCHASQNINVWLSWYQQKPGNIPKLLIYKASNLHTGVPSRFTGSGSGTGFTLTISSLQPEDIATYYCQQGQTYPYTFGGGTKLEIK

Reference: US20260242483A1
